We go through five molecules from patent publication US20140274782A1, “AFFINITY REAGENTS AND METHODS FOR DETECTION, PURIFICATION, AND PROTEOMIC ANALYSIS OF METHYLATED PROTEINS” (The Board of Trustees of the Leland Stanford Junior …, priority 2013, published 2014).

One experiment deals with 3×MBT domain of L3MBTL1. Description: Triple SILAC pull-down, 3xMBT/3xMBTD355N ratio (cytoplasmic, nuclear and chromatin fractions of 293T cells).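 On all read-outs here: proteins quantified with MaxQuant, requiring at least two unique peptides and quantification in both label directions, normalized to the mean of proteins from a digested loading control.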 Type of experiment: binding, human. To be noted: SILAC ratio, pull-down 3xMBT vs 3xMBTD355N; for 3xMBT/D355N UNC Heavy: experiment with UNC0638 in heavy SILAC media; for 3xMBT/D355N UNC Light: experiment with UNC0638 in light SILAC media.

The target in a further experiment is T1, G9a and GLP (Homo sapiens, UniProt Q96KQ7+Q9H9B1).
T1 sequence (Q96KQ7 2-1210 limits assumed): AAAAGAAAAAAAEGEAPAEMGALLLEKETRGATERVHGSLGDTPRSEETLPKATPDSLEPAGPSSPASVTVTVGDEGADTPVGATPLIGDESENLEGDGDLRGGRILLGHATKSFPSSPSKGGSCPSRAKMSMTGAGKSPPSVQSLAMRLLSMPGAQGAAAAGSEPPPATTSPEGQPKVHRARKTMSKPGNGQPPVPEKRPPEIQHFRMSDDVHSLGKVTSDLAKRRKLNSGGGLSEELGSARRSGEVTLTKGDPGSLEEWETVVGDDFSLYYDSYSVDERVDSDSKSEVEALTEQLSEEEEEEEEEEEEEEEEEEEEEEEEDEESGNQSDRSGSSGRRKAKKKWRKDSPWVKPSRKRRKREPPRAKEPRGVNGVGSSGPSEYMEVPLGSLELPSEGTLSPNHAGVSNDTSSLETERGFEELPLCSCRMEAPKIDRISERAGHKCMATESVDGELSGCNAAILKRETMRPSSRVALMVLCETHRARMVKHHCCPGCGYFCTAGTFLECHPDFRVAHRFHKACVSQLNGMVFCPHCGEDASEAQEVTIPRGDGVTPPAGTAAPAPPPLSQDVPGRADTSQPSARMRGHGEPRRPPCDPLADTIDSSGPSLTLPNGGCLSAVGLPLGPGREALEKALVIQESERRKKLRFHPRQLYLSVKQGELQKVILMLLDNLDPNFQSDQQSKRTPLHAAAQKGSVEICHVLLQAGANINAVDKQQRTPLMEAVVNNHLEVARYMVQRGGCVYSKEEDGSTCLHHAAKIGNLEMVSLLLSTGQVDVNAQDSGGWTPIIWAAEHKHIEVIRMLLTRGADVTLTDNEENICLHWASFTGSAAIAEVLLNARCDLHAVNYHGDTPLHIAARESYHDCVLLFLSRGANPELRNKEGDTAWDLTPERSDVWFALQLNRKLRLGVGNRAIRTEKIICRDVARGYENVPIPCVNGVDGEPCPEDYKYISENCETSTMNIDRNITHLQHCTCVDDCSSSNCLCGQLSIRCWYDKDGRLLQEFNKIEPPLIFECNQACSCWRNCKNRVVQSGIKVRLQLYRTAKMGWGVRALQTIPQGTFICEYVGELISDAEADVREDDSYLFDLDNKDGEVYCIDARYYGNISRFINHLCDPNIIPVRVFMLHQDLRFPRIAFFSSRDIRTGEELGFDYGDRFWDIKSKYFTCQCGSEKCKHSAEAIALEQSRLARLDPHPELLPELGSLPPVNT
T1 sequence (Q9H9B1 2-1298 limits assumed): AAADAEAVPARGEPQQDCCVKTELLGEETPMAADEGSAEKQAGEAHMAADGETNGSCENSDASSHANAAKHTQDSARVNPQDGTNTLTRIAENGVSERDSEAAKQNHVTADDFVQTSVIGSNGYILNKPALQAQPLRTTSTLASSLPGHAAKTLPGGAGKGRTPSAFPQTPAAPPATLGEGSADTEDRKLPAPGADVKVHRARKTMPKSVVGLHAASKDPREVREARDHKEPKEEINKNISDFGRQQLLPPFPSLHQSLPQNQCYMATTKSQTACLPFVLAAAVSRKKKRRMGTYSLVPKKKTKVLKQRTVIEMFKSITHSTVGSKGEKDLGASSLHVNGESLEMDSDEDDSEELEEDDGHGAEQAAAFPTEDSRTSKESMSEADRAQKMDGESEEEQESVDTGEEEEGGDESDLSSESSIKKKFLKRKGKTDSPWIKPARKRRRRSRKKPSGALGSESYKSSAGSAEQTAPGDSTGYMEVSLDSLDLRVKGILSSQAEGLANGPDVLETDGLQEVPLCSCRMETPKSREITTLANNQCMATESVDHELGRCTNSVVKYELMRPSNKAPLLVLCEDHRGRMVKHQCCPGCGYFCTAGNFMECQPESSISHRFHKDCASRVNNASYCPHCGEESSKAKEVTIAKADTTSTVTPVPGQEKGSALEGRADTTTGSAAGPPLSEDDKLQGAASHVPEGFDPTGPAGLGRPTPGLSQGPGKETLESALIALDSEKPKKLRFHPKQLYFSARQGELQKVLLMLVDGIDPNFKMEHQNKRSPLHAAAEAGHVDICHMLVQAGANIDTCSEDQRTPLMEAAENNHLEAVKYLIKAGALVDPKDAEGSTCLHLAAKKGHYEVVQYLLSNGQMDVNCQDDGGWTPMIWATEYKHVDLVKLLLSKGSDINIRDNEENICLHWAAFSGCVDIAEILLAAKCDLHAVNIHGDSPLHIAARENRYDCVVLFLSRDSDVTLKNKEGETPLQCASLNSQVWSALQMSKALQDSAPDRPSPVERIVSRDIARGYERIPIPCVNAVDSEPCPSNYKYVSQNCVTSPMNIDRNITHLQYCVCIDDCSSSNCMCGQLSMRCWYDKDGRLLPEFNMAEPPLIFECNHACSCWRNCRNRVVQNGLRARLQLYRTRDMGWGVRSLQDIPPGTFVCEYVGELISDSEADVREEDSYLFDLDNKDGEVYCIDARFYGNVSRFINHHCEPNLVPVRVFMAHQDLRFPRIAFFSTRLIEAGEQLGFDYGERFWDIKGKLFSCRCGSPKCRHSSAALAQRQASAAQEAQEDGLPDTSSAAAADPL
Briefly: Triple SILAC pull-down after UNC0638 treatment of 293T cells, DMSO/UNC0638 ratio of protein captured by 3×MBT.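 On all read-outs here: mass spectrometry (Q-Exactive) SILAC quantitation, DMSO/UNC0638 ratio computed after subtracting 3×MBTD355N mutant pull-down background, only proteins with at least twofold 3×MBT over mutant signal considered.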 The format is cell-based. More on the design: cells were treated for 24 hours with UNC0638 at 2.5 μM or DMSO vehicle control; endogenous in cells; host or cells: HEK 293T. To be noted: for Relative to UNC0638 UNC Heavy / Relative to UNC0638 UNC Light: SILAC ratio DMSO/UNC0638 of protein pulled down with 3xMBT; for Relative to UNC0638 UNC Heavy: UNC0638 in heavy SILAC media; for Relative to UNC0638 UNC Light: UNC0638 in light SILAC media; for Relative to UNC0638 Average: average of UNC Light and UNC Heavy experiments.

B1: C14orf166 (protein, UniProt Q9Y224 1-244, looked up)
RNA transcription, …: MFRRKLTALDYHNPAGFNCKDETEFRNFIVWLEDQKIRHYKIEDRGNLRNIHSSDWPKFFEKYLRDVNCPFKIQDRQEAIDWLLGLAVRLEYGDNAEKYKDLVPDNSKTADNATKNAEPLINLDVNNPDFKAGVMALANLLQIQRHDDYLVMLKAIRILVQERLTQDAVAKANQTKEGLPVALDKHILGFDTGDAVLNEAAQILRLLHIEELRELQTKINEAIVAVQAIIADPKTDHRLGKVGR
Consider B1, for which, in the experiment on 3×MBT domain of L3MBTL1, the “3xMBT/D355N UNC Heavy” value was found to be 3.09 log base 2 and the “3xMBT/D355N UNC Light” value amounted to 3.13 log base 2. In addition, in the experiment with G9a and GLP, the “Relative to UNC0638 UNC Heavy” value was determined as 0.09 log base 2, the “Relative to UNC0638 UNC Light” value was found to be 0.24 log base 2 and the “Relative to UNC0638 Average” value is recorded as 0.16 log base 2.

B2: SEPT2 (protein, UniProt Q15019 1-361, looked up)
Septin-2: MSKQQPTQFINPETPGYVGFANLPNQVHRKSVKKGFEFTLMVVGESGLGKSTLINSLFLTDLYPERVIPGAAEKIERTVQIEASTVEIEERGVKLRLTVVDTPGYGDAINCRDCFKTIISYIDEQFERYLHDESGLNRRHIIDNRVHCCFYFISPFGHGLKPLDVAFMKAIHNKVNIVPVIAKADTLTLKERERLKKRILDEIEEHNIKIYHLPDAESDEDEDFKEQTRLLKASIPFSVVGSNQLIEAKGKKVRGRLYPWGVVEVENPEHNDFLKLRTMLITHMQDLQEVTQDLHYENFRSERLKRGGRKVENEDMNKDQILLEKEAELRRMQEMIARMQAQMQMQMQGGDGDGGALGHHV
For the molecule B2, in the experiment with 3×MBT domain of L3MBTL1, the “3xMBT/D355N UNC Heavy” value came to 1.89 log base 2 and the “3xMBT/D355N UNC Light” value is on record as 2.49 log base 2. In addition, in the experiment with G9a and GLP, the “Relative to UNC0638 UNC Heavy” value is 0.21 log base 2, the “Relative to UNC0638 UNC Light” value is recorded as 0.12 log base 2 and the “Relative to UNC0638 Average” value is 0.17 log base 2.

B3: SFPQ (protein, UniProt P23246 1-707, looked up)
Splicing factor, proline- and …: MSRDRFRSRGGGGGGFHRRGGGGGRGGLHDFRSPPPGMGLNQNRGPMGPGPGQSGPKPPIPPPPPHQQQQQPPPQQPPPQQPPPHQPPPHPQPHQQQQPPPPPQDSSKPVVAQGPGPAPGVGSAPPASSSAPPATPPTSGAPPGSGPGPTPTPPPAVTSAPPGAPPPTPPSSGVPTTPPQAGGPPPPPAAVPGPGPGPKQGPGPGGPKGGKMPGGPKPGGGPGLSTPGGHPKPPHRGGGEPRGGRQHHPPYHQQHHQGPPPGGPGGRSEEKISDSEGFKANLSLLRRPGEKTYTQRCRLFVGNLPADITEDEFKRLFAKYGEPGEVFINKGKGFGFIKLESRALAEIAKAELDDTPMRGRQLRVRFATHAAALSVRNLSPYVSNELLEEAFSQFGPIERAVVIVDDRGRSTGKGIVEFASKPAARKAFERCSEGVFLLTTTPRPVIVEPLEQLDDEDGLPEKLAQKNPMYQKERETPPRFAQHGTFEYEYSQRWKSLDEMEKQQREQVEKNMKDAKDKLESEMEDAYHEHQANLLRQDLMRRQEELRRMEELHNQEMQKRKEMQLRQEEERRRREEEMMIRQREMEEQMRRQREESYSRMGYMDPRERDMRMGGGGAMNMGDPYGSGGQKFPPLGGGGGIGYEANPGVPPATMSGSMMGSDMRTERFGQGGAGPVGGQGPRGMGPGTPAGYGRGREEYEGPNKKPRF
Take B3: in the experiment on 3×MBT domain of L3MBTL1, the “3xMBT/D355N UNC Heavy” value amounted to 3.19 log base 2 and the “3xMBT/D355N UNC Light” value worked out at 3.86 log base 2. Besides, in the experiment with G9a and GLP, the “Relative to UNC0638 UNC Heavy” value was found to be 0.08 log base 2, the “Relative to UNC0638 UNC Light” value is given as 0.25 log base 2 and the “Relative to UNC0638 Average” value was 0.17 log base 2.

B4: DDX17 (protein, UniProt Q92841 1-729, looked up)
Probable ATP-dependent RNA …: MPTGFVAPILCVLLPSPTREAATVASATGDSASERESAAPAAAPTAEAPPPSVVTRPEPQALPSPAIRAPLPDLYPFGTMRGGGFGDRDRDRDRGGFGARGGGGLPPKKFGNPGERLRKKKWDLSELPKFEKNFYVEHPEVARLTPYEVDELRRKKEITVRGGDVCPKPVFAFHHANFPQYVMDVLMDQHFTEPTPIQCQGFPLALSGRDMVGIAQTGSGKTLAYLLPAIVHINHQPYLERGDGPICLVLAPTRELAQQVQQVADDYGKCSRLKSTCIYGGAPKGPQIRDLERGVEICIATPGRLIDFLESGKTNLRRCTYLVLDEADRMLDMGFEPQIRKIVDQIRPDRQTLMWSATWPKEVRQLAEDFLRDYTQINVGNLELSANHNILQIVDVCMESEKDHKLIQLMEEIMAEKENKTIIFVETKRRCDDLTRRMRRDGWPAMCIHGDKSQPERDWVLNEFRSGKAPILIATDVASRGLDVEDVKFVINYDYPNSSEDYVHRIGRTARSTNKGTAYTFFTPGNLKQARELIKVLEEANQAINPKLMQLVDHRGGGGGGGGRSRYRTTSSANNPNLMYQDECDRRLRGVKDGGRRDSASYRDRSETDRAGYANGSGYGSPNSAFGAQAGQYTYGQGTYGAAAYGTSSYTAQEYGAGTYGASSTTSTGRSSQSSSQQFSGIGRSGQQPQPLMSQQFAQPPGATNMIGYMGQTAYQYPPPPPPPPPSRK
Regarding B4, in the experiment with 3×MBT domain of L3MBTL1, the “3xMBT/D355N UNC Heavy” value was determined as 2.61 log base 2 and the “3xMBT/D355N UNC Light” value is recorded as 2.86 log base 2. In the experiment with G9a and GLP, the “Relative to UNC0638 UNC Heavy” value came to 0.21 log base 2, the “Relative to UNC0638 UNC Light” value came to 0.12 log base 2 and the “Relative to UNC0638 Average” value is listed as 0.16 log base 2.

B5: DRG1 (protein, UniProt Q9Y295 2-367, looked up)
Developmentally-regulated …: SSTLAKIAEIEAEMARTQKNKATAHHLGLLKARLAKLRRELITPKGGGGGGPGEGFDVAKTGDARIGFVGFPSVGKSTLLSNLAGVYSEVAAYEFTTLTTVPGVIRYKGAKIQLLDLPGIIEGAKDGKGRGRQVIAVARTCNLILIVLDVLKPLGHKKIIENELEGFGIRLNSKPPNIGFKKKDKGGINLTATCPQSELDAETVKSILAEYKIHNADVTLRSDATADDLIDVVEGNRVYIPCIYVLNKIDQISIEELDIIYKVPHCVPISAHHRWNFDDLLEKIWDYLKLVRIYTKPKGQLPDYTSPVVLPYSRTTVEDFCMKIHKNLIKEFKYALVWGLSVKHNPQKVGKDHTLEDEDVIQIVKK
For the molecule B5, in the experiment with 3×MBT domain of L3MBTL1, the “3xMBT/D355N UNC Heavy” value stood at 3.49 log base 2 and the “3xMBT/D355N UNC Light” value is on record as 3.66 log base 2. In the experiment with G9a and GLP, the “Relative to UNC0638 UNC Heavy” value is recorded as 0.36 log base 2, the “Relative to UNC0638 UNC Light” value is −0.03 log base 2 and the “Relative to UNC0638 Average” value turned out to be 0.16 log base 2.
